{"source": "patent US7445894B2", "about": "“Compositions and methods for detection and isolation of phosphorylated molecules” (priority 2002, dated 2008)", "key": {"phosphopeptides": {"system": "phosphopeptides", "assay": "Quantitative binding of phosphopeptides using streptavidin ferrofluid particles", "details": "550 pmoles phosphopeptides, particles saturated with Compound 9, charged with GaCl3, eluted with 0.15 M ammonium hydroxide", "procedure": "Quantitative binding of phosphopeptides was accomplished using labeled ferrofluid particles. Streptavidin ferrofluid particles were labeled with Compound 9 until saturated. After washing away unbound dye, the particles were charged with 0.1 M GaCl3, then washed with 0.1 M NaOAc, pH 4.0. 100 μL of magnetic particles (4 mg/mL) was added with standard peptide mix containing 550 picomoles of phosphopeptides. The mixture was incubated for 20 min while gently vortexing. The particles were isolated using a magnetic separator and the resulting supernatant was removed. The beads were washed 2× with 100 μL 100 mM NaOAc, pH 4.0 and the phosphopeptides were eluted with 0.15 M ammonium hydroxide. Greater than 95% of the phosphopeptides (550 pmoles) were isolated."}, "[1]": {"system": "T1, Glycogen synthase 1-10 peptide (Calbiochem)", "T1 sequence": "PLSRTLSVSS"}, "[2]": {"system": "T2, Kemptide (non-phosphorylated)", "T2 sequence": "LRRASLG"}, "[3]": {"system": "T3, Abl peptide (New England Biolabs), substrate for Abl tyrosine kinase", "T3 sequence": "EAIYAAPFAKKK"}, "[4]": {"system": "T4, crosstide, biotinylated synthetic peptide", "T4 sequence": "GRPRTSSFAEG"}, "[5]": {"system": "Bovine muscle myosin light chain"}, "[6]": {"target": "pp60 c-src (pY), phosphorylated form of the pp60 c-src peptide", "assay": "peptide microarray on HydroGel slides; primary antibody, then Zenon One Alexa Fluor 647 mouse IgG labeling reagent; 632.8 nm excitation / 670 nm emission"}, "[7]": {"target": "pp60 c-src (pY), phosphorylated form of the pp60 c-src peptide", "assay": "peptide microarray on HydroGel slides; primary antibody at 1.5 µg/mL, then Alexa Fluor 647 goat anti-mouse; 632.8 nm excitation / 670 nm emission"}}, "data": [{"substance": "4-(N-(5″-biotinylaminopentyl)aminocarbonyl)-rhod tetrapotassium salt [Compound 9]", "values": [{"measurement": "phosphopeptides isolated", "setting": "phosphopeptides", "value": "Greater than 95%"}]}, {"substance": "Abl Protein Tyrosine Kinase (NEB)", "values": [{"measurement": "fluorescent labeling (Compound 2/Ga3+) of arrayed peptide after kinase reaction; Glycogen Synthase 1-10 not labeled", "setting": "[1]", "value": "Abl peptide substrate is the only fluorescently labeled peptide on the array"}, {"measurement": "fluorescent labeling (Compound 2/Ga3+) of arrayed peptide after kinase reaction; Kemptide not labeled", "setting": "[2]", "value": "Abl peptide substrate is the only fluorescently labeled peptide on the array"}, {"measurement": "fluorescent labeling (Compound 2/Ga3+) of arrayed peptide after kinase reaction", "setting": "[3]", "value": "Abl peptide substrate is the only fluorescently labeled peptide on the array"}, {"measurement": "fluorescent labeling (Compound 2/Ga3+) of arrayed peptide after kinase reaction with ATP-γ-S or ATP", "setting": "[3]", "value": "Abl peptide substrate is the only fluorescently labeled peptide on the array"}, {"measurement": "sensitivity of detection after kinase reaction", "setting": "[3]", "value": "Sensitivity of detection after kinase reaction is at least 0.18 ng or 0.14 pmol"}, {"measurement": "sensitivity of detection after kinase reaction with ATP (control)", "setting": "[3]", "value": "0.325 pg of Abl peptide, in the control reaction using ATP, was labeled and detected"}, {"measurement": "sensitivity of detection after kinase reaction with ATP-γ-S", "setting": "[3]", "value": "Sensitivity of detection after kinase reaction was 2.6 pg of the peptide labeled using ATP-γ-S"}]}, {"substance": "Akt/Protein Kinase B", "values": [{"measurement": "fluorescent signal (Compound 2/Ga3+) of peptide charged beads, exposed to kinase against not exposed", "setting": "[4]", "value": "The fluorescent signal of the peptide charged beads exposed to Akt/PKB kinase was found to be 2.2-fold higher, with no overlap in standard deviation, than the control peptide charged beads not exposed to enzyme"}]}, {"substance": "Calcium-Calmodulin-Dependent protein Kinase II (New England BioLabs)", "values": [{"measurement": "fluorescent labeling (Compound 2/Ga3+) of arrayed peptide after kinase reaction", "setting": "[1]", "value": "glycogen synthase peptide is the only fluorescently labeled peptide on the array"}, {"measurement": "sensitivity of detection after kinase reaction", "setting": "[1]", "value": "Sensitivity of detection after kinase reaction is at least 0.375 ng or 0.35 pmol"}, {"measurement": "fluorescent labeling (Compound 2/Ga3+) of arrayed peptide after kinase reaction; Abl peptide not labeled", "setting": "[3]", "value": "glycogen synthase peptide is the only fluorescently labeled peptide on the array"}, {"measurement": "phosphoprotein stain signal (Compound 2/Ga3+) of the gel band, kinase reaction against no-enzyme control", "setting": "[5]", "value": "the signal from the band in the lane corresponding to the reaction containing the enzyme 3.4-fold greater than the no-enzyme control"}]}, {"substance": "phosphotyrosine monoclonal antibody P-Tyr-100 (Cell Signaling Tech.)", "values": [{"measurement": "sensitivity of detection", "setting": "[6]", "value": 0.65, "unit": "pg"}, {"measurement": "sensitivity of detection", "setting": "[7]", "value": 5.2, "unit": "pg"}]}]}
